Laboratory results as given in IntAct's records for PubMed 7538907.

B1: Tumor necrosis factor receptor superfamily member 6 (Homo sapiens), P25445 (parent)
chain: MLGIWTLLPLVLTSVARLSSKSVNAQVTDINSKGLELRKTVTTVETQNLEGLHHDGQFCHKPCPPGERKARDCTVNGDEPDCVPCQEGKEYTDKAHFSSKCRRCRLCDEGHGLEVEINCTRTQNTKCRCKPNFFCNSTVCEHCDPCTKCEHGIIKECTLTSNTKCKEEGSRSNLGWLCLLLLPIPLIVWVKRKEVQKTCRKHRKENQGSHESPTLNPETVAINLSDVDLSKYITTIAGVMTLSQVKGFVRKNGVNEAKIDEIKNDNVQDTAEQKVQLLRNWHQLHGKKEAYDTLIKDLKKANLCTLAEKIQTIILKDITSDSENSNFRNEIQSLV
B2: FAS-associated death domain protein (Homo sapiens), Q13158 (parent)
chain: MDPFLVLLHSVSSSLSSSELTELKFLCLGRVGKRKLERVQSGLDLFSMLLEQNDLEPGHTELLRELLASLRRHDLLRRVDDFEAGAAAGAAPGEEDLCAAFNVICDNVGKDWRRLARQLKVSDTKIDSIEDRYPRNLTERVRESLRIWKNTEKENATVAHLVGALRSCQMNLVADLVQEVQQARDLQNRSGAMSPMSWNSDASTSEAS

Variants of: B1
Conditions: with fadd_human FADD

**Q.** V254N was tested. Which “effect of a mutation on the interaction” value did it give?
**A.** decreasing interaction

Variants of: B2
Conditions: with tnr6_human FAS

**Q.** Which “effect of a mutation on the interaction” value does the source give for V121N here?
**A.** decreasing interaction
